# Test results from patent US20230383273.
# What was measured:
# Assay in all cases: cleavage_in_vitro
# [1] = tested on: T1, OMNI-84 (Porphyrobacter donghaensis); conditions: PAM NNNNGCAA; TXTL
# T1 sequence: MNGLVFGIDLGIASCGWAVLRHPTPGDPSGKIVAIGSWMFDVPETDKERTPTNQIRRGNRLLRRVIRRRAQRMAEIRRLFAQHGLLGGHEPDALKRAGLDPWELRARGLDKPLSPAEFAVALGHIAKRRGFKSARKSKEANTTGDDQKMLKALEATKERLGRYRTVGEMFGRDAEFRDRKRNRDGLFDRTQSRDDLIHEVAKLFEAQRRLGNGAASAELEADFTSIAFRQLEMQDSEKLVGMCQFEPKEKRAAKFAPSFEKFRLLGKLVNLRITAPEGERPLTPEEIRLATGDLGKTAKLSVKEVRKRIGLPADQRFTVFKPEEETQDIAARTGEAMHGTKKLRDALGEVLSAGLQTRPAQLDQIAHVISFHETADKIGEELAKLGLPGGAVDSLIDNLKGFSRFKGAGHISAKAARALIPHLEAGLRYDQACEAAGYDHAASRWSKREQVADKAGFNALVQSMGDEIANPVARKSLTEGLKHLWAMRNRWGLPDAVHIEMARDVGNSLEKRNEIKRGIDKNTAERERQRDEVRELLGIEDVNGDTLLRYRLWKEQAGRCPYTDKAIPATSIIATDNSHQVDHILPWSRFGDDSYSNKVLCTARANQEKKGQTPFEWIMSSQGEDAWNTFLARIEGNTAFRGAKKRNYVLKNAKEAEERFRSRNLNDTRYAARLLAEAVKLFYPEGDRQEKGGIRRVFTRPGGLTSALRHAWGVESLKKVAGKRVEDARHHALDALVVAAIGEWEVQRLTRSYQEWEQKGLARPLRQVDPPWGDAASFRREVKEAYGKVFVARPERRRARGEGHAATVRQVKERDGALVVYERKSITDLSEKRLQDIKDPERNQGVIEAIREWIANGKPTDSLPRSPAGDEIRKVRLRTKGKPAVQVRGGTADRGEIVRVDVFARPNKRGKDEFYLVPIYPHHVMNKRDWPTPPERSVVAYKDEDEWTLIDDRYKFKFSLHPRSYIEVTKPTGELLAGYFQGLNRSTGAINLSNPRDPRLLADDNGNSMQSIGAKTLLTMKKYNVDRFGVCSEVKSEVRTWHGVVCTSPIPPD
# [2] = tested on: T2, OMNI-78 (Notoacmeibacter marinus); conditions: PAM NRRNAT; TXTL
# T2 sequence: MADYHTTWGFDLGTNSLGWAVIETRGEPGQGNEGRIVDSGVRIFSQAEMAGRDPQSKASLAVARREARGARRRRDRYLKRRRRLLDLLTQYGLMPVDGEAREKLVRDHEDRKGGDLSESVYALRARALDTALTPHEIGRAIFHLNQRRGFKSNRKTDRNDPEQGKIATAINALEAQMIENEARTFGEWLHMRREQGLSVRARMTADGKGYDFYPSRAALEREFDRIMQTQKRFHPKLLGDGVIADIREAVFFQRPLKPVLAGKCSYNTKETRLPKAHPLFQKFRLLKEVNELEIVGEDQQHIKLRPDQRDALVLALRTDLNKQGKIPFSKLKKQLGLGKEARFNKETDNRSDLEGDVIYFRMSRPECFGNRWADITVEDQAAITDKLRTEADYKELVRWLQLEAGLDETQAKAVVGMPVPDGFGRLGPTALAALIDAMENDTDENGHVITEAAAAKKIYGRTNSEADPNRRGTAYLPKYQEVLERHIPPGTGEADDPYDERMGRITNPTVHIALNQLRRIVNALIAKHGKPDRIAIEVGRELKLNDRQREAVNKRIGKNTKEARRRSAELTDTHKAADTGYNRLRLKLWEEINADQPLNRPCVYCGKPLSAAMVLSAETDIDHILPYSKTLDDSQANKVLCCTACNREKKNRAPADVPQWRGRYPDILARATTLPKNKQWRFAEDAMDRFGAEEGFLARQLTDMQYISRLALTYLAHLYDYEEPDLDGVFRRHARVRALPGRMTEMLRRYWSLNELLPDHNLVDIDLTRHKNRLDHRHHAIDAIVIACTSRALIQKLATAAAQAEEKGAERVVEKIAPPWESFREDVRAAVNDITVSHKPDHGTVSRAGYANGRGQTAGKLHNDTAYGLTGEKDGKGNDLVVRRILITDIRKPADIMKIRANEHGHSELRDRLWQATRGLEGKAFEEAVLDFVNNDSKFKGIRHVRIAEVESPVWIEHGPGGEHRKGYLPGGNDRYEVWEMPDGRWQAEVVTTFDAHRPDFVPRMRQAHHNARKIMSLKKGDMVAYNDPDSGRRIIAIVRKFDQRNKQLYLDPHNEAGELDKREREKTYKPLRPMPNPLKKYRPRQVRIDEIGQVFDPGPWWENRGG
# [3] = tested on: T3, OMNI-68 (Gemmiger sp. An50); conditions: PAM NNNVTA; TXTL
# T3 sequence: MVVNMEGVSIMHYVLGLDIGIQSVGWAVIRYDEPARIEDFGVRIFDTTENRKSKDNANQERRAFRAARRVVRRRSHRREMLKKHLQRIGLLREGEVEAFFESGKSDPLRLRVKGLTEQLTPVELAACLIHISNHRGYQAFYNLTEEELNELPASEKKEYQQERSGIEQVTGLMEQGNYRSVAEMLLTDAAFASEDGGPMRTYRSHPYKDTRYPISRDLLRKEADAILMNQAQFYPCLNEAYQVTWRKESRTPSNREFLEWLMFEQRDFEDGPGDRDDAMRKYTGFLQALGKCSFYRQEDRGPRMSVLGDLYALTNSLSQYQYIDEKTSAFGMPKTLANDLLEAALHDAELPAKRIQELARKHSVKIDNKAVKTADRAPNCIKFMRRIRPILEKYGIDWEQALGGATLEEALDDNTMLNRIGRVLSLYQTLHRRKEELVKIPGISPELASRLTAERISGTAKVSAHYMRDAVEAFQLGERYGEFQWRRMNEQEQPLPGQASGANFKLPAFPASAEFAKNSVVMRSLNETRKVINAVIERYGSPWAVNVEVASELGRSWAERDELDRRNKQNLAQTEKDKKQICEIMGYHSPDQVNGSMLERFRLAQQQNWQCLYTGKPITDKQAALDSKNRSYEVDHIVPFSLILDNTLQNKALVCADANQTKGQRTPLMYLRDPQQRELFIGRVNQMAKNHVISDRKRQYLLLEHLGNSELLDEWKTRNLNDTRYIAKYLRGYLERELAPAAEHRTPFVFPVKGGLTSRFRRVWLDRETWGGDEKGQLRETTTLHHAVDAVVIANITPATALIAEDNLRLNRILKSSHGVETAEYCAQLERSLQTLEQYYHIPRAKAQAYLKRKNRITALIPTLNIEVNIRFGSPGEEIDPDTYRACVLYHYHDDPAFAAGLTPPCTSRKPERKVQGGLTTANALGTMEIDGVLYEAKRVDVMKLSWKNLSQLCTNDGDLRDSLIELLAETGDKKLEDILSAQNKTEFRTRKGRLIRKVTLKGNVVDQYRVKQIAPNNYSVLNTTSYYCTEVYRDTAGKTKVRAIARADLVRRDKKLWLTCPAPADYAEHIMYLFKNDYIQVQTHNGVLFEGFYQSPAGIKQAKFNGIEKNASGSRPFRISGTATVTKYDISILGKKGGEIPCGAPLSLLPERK
# [4] = tested on: T4, OMNI-75 (Lactococcus sp. 1JSPR-7); conditions: PAM NNGNRA; TXTL
# T4 sequence: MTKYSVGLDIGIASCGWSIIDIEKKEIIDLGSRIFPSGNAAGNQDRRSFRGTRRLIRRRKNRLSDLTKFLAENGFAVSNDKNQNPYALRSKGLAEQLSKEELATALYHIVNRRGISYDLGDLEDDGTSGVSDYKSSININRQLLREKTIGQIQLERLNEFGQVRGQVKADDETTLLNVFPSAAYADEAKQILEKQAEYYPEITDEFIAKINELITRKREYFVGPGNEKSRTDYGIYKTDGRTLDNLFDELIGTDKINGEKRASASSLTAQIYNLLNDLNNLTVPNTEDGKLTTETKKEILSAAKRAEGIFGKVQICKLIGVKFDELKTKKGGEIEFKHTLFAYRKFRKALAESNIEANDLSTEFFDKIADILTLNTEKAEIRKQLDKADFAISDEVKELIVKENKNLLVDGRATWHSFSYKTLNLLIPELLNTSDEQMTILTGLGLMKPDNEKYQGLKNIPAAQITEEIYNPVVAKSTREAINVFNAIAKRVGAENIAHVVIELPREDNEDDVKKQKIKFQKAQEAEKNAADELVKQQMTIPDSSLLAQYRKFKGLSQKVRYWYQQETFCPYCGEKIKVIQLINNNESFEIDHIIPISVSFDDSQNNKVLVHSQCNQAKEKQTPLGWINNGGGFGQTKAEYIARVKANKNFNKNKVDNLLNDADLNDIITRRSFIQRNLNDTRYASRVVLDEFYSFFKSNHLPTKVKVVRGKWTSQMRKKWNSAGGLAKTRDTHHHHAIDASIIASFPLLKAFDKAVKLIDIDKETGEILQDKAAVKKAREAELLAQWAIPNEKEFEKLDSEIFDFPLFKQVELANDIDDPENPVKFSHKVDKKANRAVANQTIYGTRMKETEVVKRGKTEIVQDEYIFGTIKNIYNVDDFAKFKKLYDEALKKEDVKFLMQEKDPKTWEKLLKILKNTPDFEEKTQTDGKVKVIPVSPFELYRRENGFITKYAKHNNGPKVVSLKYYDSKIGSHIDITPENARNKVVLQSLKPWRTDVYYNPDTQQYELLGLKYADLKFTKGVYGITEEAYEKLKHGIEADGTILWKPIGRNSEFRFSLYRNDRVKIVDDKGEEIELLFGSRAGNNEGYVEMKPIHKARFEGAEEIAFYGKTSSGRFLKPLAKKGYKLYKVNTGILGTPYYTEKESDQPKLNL
sequence,measurement,setting,value
GGAAGAGCAGAGCCUUGGUCUCGCCGUGGUUUCCCUACCGAUUUGCCCAUGGUAGGGAAAGUUAUCGGCAAAUCGGUAGGGAAGCCACGGUAACAGAGCUUCACUGUGAAGGAUCAUCCUGAAGGGGAAAUUCCUUAUUGAAGCACUGAUACAGAGCUUCUGUAUUCAAACGACCCUUUCUGAGAUAUCAGAGAGGGUCGUUUUU / GGAAGAGCAGAGCCTTGGTCTCNNNNNNNN / NNNNNNNNGAGACCAAGGCTCTGCTCTTCC,activity (1-depletion score),[1],0.93
GGAAGAGCAGAGCCUUGGUCUCGUUGCGGUUGGCCUGCGAGAAAUCGCAGUCCAGCCGUUAACAAGCUGAGAUAUGCACCAGAUAAGGCGCUCGCUCCGGCGAGCGCUUUUUU / GGAAGAGCAGAGCCTTGGTCTCNNNNNNNN / NNNNNNNNGAGACCAAGGCTCTGCTCTTCC,activity (1-depletion score),[2],0.9
GGAAGAGCAGAGCCUUGGUCUCGUUUUGGUUCUCUGAUGGGAAACAUCAGAAGUUCUAAGAUAAGGCUUUACGCCGCAGGGUAUGGUGGUAUCCCGAACAAUCCACCGUUUCAGGAAUAGCGCAGCACUGGUUUCCAGUGCUGUUUUU / GGAAGAGCAGAGCCTTGGTCTCNNNNNNNN / NNNNNNNNGAGACCAAGGCTCTGCTCTTCC,activity (1-depletion score),[3],0.88
GGAAGAGCAGAGCCUUGGUCUCGUUUUUGUACUCUCAAGAAAUUGAGAAUCUACAAGGAUAAGGCUUUAUGCCGAAAUCAUUAACUCGCCUUUGGGCGAGUUUUUU / GGAAGAGCAGAGCCTTGGTCTCNNNNNNNN / NNNNNNNNGAGACCAAGGCTCTGCTCTTCC,activity (1-depletion score),[4],0.93
